# Reference: US20190248877A1 (Hoffmann-La Roche, published 2019)
# T1: huTNC (recombinant human TnC antigen) (human, UniProt P24821 984-1798, biotin on the C-terminal avi-tag where used biotinylated (Examples 5 and 10))
# T1 sequence: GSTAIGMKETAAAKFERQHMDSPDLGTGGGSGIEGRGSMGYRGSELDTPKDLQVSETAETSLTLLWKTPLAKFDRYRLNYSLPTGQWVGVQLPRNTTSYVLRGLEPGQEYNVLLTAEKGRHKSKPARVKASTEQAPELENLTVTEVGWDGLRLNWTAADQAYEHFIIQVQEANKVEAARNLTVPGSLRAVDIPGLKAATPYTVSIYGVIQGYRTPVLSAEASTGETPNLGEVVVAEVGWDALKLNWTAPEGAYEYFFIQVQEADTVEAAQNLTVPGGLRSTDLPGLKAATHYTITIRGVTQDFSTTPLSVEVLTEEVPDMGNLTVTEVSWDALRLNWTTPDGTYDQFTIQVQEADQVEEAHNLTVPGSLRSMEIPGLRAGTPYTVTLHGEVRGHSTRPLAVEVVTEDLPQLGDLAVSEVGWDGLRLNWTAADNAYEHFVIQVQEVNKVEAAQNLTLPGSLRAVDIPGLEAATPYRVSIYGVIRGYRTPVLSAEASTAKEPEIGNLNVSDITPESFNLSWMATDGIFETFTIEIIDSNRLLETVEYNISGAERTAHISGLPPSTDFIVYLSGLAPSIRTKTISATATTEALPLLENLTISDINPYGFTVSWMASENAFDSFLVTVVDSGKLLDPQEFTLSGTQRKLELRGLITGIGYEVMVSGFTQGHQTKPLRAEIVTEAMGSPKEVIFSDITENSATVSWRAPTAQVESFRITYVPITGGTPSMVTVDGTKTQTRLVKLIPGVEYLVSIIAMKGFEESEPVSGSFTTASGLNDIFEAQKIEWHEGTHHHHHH
# T2: muTNC (recombinant murine TnC antigen) (mouse, biotin on the C-terminal avi-tag where used biotinylated (Example 5))
# T2 construct: GST may have been cleaved off by thrombin; The text says this construct lacks the C domain; also called mouse TnC
# T2 chain: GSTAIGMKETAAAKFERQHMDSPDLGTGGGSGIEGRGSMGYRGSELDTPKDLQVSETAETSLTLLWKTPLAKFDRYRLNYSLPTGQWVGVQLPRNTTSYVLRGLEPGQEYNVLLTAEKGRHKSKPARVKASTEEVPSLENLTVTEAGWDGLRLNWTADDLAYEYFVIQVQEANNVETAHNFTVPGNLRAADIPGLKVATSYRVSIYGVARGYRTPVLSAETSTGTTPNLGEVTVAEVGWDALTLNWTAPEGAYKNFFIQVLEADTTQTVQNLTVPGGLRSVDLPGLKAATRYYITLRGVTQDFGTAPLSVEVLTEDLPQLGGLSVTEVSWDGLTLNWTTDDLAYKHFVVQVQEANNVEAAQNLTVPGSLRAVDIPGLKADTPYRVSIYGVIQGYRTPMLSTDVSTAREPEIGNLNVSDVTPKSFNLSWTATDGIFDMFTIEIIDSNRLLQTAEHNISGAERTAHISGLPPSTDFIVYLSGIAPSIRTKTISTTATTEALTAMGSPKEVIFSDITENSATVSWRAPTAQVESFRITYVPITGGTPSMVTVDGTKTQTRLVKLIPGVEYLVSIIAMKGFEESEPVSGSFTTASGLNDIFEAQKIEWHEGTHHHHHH
# T3: cynoTNC (recombinant cynomolgus TnC antigen) (cynomolgus, biotin on the C-terminal avi-tag where used biotinylated (Example 5))
# T3 construct: GST may have been cleaved off by thrombin; The text says this construct lacks the C domain
# T3 chain: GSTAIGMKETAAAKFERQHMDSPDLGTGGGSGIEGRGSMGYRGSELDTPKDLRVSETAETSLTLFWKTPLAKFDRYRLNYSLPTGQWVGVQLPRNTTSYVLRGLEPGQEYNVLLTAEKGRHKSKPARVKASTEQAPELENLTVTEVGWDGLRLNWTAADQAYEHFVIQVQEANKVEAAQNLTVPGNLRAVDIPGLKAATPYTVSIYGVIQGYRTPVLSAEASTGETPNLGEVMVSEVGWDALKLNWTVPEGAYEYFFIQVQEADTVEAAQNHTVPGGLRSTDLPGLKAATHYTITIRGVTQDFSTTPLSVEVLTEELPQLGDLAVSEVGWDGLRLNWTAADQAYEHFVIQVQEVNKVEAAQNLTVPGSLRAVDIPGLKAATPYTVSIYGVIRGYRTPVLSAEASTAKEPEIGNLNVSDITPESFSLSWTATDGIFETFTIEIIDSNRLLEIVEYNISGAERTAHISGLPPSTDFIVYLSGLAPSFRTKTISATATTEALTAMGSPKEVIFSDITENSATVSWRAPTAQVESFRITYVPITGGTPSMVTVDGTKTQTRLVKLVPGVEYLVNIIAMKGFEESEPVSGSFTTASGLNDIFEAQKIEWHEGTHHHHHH
# T4: GST TNC hu fn5 B-C fn6 B (human, biotin on the C-terminal avi-tag (BirA, site-specific))
# T4 chain: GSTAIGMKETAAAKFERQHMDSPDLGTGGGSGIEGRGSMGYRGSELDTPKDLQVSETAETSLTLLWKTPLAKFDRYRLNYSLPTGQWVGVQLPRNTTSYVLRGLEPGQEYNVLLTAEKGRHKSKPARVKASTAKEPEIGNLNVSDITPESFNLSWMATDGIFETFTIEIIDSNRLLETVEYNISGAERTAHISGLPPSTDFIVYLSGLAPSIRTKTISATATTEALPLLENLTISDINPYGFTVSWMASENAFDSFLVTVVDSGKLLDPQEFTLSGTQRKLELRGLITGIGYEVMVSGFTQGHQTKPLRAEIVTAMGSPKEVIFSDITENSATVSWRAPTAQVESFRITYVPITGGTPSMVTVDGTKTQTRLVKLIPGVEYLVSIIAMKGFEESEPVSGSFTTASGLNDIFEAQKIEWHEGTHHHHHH
# T5: GST huTNC fn5 A1234 BC fn6 B (human, UniProt P24821 984-1798, biotin on the C-terminal avi-tag (BirA, site-specific))
# T5 construct: also called Human GST-fused TnC fn5 A1234 BC fn6
# T5 sequence: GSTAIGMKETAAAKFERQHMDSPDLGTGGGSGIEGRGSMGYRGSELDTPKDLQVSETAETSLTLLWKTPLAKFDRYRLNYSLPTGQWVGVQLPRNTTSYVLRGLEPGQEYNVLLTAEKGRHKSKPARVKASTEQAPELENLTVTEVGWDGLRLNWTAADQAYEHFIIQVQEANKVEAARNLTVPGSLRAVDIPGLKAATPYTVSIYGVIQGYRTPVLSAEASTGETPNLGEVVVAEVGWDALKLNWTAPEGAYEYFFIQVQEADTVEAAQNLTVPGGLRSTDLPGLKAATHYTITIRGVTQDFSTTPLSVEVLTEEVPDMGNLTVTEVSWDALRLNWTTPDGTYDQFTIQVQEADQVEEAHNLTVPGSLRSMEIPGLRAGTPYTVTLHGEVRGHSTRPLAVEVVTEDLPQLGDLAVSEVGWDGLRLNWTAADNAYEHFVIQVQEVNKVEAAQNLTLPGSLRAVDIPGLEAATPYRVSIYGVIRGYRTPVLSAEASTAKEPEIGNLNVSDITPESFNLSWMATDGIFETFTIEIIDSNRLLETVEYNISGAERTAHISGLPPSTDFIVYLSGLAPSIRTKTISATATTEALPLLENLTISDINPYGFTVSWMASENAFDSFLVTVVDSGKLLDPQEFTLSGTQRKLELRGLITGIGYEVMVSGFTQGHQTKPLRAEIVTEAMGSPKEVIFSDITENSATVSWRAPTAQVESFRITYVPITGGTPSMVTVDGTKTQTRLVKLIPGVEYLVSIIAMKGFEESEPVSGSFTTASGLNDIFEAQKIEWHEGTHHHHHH
# B1: anti-TnC 18D4 wild type human IgG1 (antibody)
# heavy: not shown
# light: DIQMTQSPSTLSASVGDRVTITCRASQSISSWLAWYQQKPGKAPKLLIYDASSLESGVPSRFSGSGSGTEFTLTISSLQPDDFATYYCQQNKKFPSGTFGQGTKVEIKRTVAAPSVFIFPPSDEQLKSGTASVVCLLNNFYPREAKVQWKVDNALQSGNSQESVTEQDSKDSTYSLSSTLTLSKADYEKHKVYACEVTHQGLSSPVTKSFNRGEC
# notes: also called 18D4 IgG wt Fc; a-TnC(18D4) huIgG1
# B2: anti-TnC(18D4) huIgG1 P329G LALA (antibody)
# heavy: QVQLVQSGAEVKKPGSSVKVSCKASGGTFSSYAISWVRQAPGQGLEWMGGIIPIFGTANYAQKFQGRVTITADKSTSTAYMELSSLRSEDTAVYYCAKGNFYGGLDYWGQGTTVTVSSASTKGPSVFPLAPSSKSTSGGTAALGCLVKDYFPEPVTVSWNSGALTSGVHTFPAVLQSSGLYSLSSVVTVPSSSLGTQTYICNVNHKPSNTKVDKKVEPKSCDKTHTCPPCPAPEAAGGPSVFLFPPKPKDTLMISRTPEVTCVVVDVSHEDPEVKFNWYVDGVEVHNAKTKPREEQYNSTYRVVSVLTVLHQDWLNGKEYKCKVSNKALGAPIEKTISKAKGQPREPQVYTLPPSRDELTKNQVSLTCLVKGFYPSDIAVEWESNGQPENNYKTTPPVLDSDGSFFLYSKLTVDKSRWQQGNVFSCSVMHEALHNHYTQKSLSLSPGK
# light: DIQMTQSPSTLSASVGDRVTITCRASQSISSWLAWYQQKPGKAPKLLIYDASSLESGVPSRFSGSGSGTEFTLTISSLQPDDFATYYCQQNKKFPSGTFGQGTKVEIKRTVAAPSVFIFPPSDEQLKSGTASVVCLLNNFYPREAKVQWKVDNALQSGNSQESVTEQDSKDSTYSLSSTLTLSKADYEKHKVYACEVTHQGLSSPVTKSFNRGEC
# notes: also called 18D4 IgG PG/LALA; 18D4 IgG PGLALA
# B3: anti-TnC clone 11C7 rabbit IgG (antibody, V domains shown)
# VH: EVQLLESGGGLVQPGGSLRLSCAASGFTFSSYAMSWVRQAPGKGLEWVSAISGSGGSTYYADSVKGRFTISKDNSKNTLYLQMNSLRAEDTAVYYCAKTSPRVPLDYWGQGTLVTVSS
# VL: SSELTQDPAVSVALGQTVRVTCQGDSLRSYYASWYQQKPGQAPVLVIYGKNNRPSGIPDRFSGSSSGNTASLTITGAQAEDEADYYCNSINSTRNEVFGGGTKLTVL
# notes: also called llC7 rb IgG; 11C7 (rb IgG)
# B4: anti-TnC clone 11C7 Fab (Fab, V domains shown)
# VH: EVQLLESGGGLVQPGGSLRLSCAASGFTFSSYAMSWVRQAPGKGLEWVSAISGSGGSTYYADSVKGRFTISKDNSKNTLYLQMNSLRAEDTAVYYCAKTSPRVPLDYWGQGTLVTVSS
# VL: SSELTQDPAVSVALGQTVRVTCQGDSLRSYYASWYQQKPGQAPVLVIYGKNNRPSGIPDRFSGSSSGNTASLTITGAQAEDEADYYCNSINSTRNEVFGGGTKLTVL
# notes: Bacterially expressed purified Fab from the lambda-DP47 phage library format (lambda CL, CH1, tags)
# Assays:
# [1] = biological target: T1, huTNC (recombinant human TnC antigen); assay: SPR Biacore T200, biotinylated TnC on SA chip, IgG as analyte, 1:1 fit (apparent, bivalent)
# Experimental: (§1) Binding of the anti-TnC IgGs 18D4, 11C7 and the Fab fragment of anti-TnC 18D4 to human, murine and cynomolgus TnC (antigens according to Table 4) was assessed by surface plasmon resonance (SPR). All SPR experiments were performed on a Biacore T200 at 25° C. with HBS-EP as running buffer (0.01 M HEPES pH 7.4, 0.15 M NaCl, 3 mM EDTA, 0.005% Surfactant P20, Biacore, Freiburg/Germany).
# (§2) A 20 μg/ml stock solution of biotinylated human, murine or cynomolgus TnC was injected on a SA chip, with the aim to immobilize up to 100 RU using the immobilization wizard function.
# (§3) An additional dissociation step of 1800s was performed for the highest concentration of IgG. After each step the surface was regenerated following two sequential injections of 10 mM glycine pH2.1 for 60 s. Bulk refractive index differences were corrected for by subtracting the response obtained in a reference flow cell without TNC. Affinity and avidity were calculated using the Langmuir 1:1 kinetic model. However, as the KD for the 1:1 fitting of bivalent interactions is an apparent value only, it should only be used for comparisons.
# [2] = biological target: T2, muTNC (recombinant murine TnC antigen); assay: as above
# Experimental: as §1, §2, §3
# [3] = biological target: T3, cynoTNC (recombinant cynomolgus TnC …); assay: as above
# Experimental: as §1, §2, §3
# [4] = biological target: T6, human TnC on TnC-expressing U87-MG glioblastoma cells (human, UniProt P24821 23-2201); assay: flow cytometry on TnC-expressing U87-MG cells
# T6 construct: whole, on cells; also called human-TnC expressing U87-MG
# T6 sequence (P24821 23-2201): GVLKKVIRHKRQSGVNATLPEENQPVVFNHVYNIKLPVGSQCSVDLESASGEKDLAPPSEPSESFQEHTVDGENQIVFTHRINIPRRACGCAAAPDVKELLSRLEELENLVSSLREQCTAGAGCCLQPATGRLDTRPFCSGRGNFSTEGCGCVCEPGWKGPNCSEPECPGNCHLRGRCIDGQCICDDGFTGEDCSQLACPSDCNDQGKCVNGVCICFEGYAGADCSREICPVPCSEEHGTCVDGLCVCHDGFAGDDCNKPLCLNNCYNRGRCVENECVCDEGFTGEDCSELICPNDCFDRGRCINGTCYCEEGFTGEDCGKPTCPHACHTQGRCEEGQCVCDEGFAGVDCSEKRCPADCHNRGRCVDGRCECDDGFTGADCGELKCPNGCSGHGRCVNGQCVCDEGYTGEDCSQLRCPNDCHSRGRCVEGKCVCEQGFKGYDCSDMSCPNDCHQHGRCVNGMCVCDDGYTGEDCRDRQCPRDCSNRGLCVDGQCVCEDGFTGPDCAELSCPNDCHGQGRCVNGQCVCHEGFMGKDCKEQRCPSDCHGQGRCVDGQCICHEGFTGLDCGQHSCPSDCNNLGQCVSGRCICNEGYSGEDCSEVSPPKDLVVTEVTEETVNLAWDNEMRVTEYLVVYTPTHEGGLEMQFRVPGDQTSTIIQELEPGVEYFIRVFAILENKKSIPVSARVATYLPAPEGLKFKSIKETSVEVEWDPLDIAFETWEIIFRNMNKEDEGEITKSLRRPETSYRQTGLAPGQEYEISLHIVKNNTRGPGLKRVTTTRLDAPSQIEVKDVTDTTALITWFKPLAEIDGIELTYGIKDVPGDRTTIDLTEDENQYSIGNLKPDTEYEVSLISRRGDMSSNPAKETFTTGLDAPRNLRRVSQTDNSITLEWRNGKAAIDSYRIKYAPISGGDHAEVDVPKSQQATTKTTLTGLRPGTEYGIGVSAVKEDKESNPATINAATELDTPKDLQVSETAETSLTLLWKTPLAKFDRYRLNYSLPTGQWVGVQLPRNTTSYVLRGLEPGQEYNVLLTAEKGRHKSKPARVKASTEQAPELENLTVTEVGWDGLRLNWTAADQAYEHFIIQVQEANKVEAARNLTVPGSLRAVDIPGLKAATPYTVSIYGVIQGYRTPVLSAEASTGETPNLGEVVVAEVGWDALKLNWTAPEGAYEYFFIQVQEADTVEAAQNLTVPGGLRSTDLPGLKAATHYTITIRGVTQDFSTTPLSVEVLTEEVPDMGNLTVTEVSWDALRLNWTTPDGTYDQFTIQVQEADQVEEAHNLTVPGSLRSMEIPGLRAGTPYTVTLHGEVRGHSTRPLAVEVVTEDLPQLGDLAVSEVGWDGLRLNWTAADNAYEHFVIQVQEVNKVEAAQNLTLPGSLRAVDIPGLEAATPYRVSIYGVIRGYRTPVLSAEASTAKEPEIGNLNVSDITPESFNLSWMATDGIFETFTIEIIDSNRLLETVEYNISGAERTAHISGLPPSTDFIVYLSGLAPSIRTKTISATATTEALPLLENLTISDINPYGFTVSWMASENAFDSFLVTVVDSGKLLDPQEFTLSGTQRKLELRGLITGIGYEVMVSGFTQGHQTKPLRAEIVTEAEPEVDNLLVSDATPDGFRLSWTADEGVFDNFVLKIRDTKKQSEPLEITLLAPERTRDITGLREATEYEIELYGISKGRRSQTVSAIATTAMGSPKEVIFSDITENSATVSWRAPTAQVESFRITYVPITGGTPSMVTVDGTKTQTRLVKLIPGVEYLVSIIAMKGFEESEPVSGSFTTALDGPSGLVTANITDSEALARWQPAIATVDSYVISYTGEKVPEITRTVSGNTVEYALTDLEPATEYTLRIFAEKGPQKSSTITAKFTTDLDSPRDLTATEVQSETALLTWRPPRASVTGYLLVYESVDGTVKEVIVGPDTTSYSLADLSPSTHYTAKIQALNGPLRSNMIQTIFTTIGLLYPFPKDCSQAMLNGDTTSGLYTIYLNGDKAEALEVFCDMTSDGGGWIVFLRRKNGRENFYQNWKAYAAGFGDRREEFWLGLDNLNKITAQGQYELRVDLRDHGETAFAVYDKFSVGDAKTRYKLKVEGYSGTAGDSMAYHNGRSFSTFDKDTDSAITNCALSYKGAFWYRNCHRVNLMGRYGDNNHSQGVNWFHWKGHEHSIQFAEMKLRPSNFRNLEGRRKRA
# Experimental: For binding assays on TnC expressing tumor cells the human glioblastoma cell line U87-MG (ATCC HTB-14) was used.
# Cells were washed once with 200 μL DPBS. […] Cells were washed once with 200 μL/well 4° C. cold DPBS buffer and resuspended in 50 μL/well of 4° C. cold FACS buffer (DPBS supplied with 2% FBS, 5 mM EDTA pH8 (Amresco, Cat. No. E177) and 7.5 mM Sodium azide (Sigma-Aldrich S2002)) containing TnC-targeted 4-1BB split trimeric ligand Fc fusion antigen binding molecules or their controls at a series of concentrations, followed by incubation for 1 hour at 4° C. […] Cells were washed twice with 200 μL/well 4° C. FACS buffer and cells were fixed in 50 μL/well DPBS containing 1% Formaldehyde (Sigma, HT501320-9.5L). Cells were resuspended in 100 μL/well FACS-buffer and acquired using the MACS Quant Analyzer 10 (Miltenyi Biotech).
# Gates were set on living tumor cells and geo means of fluorescence intensity of PE-conjugated AffiniPure anti-human IgG IgG Fcγ-fragment-specific goat F(ab′)2 fragment were blotted against the titrated concentration of TnC-targeted 4-1BB split trimeric ligand Fc fusion antigen binding molecules or their controls.
# GST TNC hu fn5 B-C fn6 B = biological target: T4, GST TNC hu fn5 B-C fn6 B; assay: SPR ProteOn XPR36, biotinylated antigen on NLC chip, Fab as analyte, 25 C
# Experimental: (§4) Immobilization of antigens (ligand): Recombinant antigens were diluted with PBST (10 mM phosphate, 150 mM sodium chloride pH 7.4, 0.005% Tween 20) to 10 μg/ml, then injected at 30 μl/minute in vertical orientation. Injection of analytes: For ‘one-shot kinetics’ measurements, injection direction was changed to horizontal orientation, two-fold dilution series of purified Fab were injected simultaneously along separate channels 1-5, with association times of 200 s, and dissociation times of 240 s, respectively. Buffer (PBST) was injected along the sixth channel to provide an “in-line” blank for referencing. Association rate constants (kₒₙ) and dissociation rate constants (koff) were calculated using a simple one-to-one Langmuir binding model in ProteOn Manager v3.1 software by simultaneously fitting the association and dissociation sensorgrams. The equilibrium dissociation constant (KD) was calculated as the ratio koff/kₒₙ.
# [5] = biological target: T5, GST huTNC fn5 A1234 BC fn6 B; assay: as above
# Experimental: as §4
Binder,Kd [1] [pM],Kd [2] [pM],Kd [3] [pM],EC50 [4] [pM],Kd (GST TNC hu fn5 B-C fn6 B) [pM],Kd [5] [pM]
B1,93,61,36,,,
B2,32,30,11,4240,,
B3,29,,,,,
B4,,,,,1000,2300
